# Assay results taken from article PMC3542407 (Journal of biotechnology, 2012).
# Columns and labels:
# [1] = system: CC(C)C=O; experiment: purified protein; conditions: 200 µM NADH, 100 mM Tris pH 7, 1 mM DTT, 25°C
# [2] = system: O=Cc1ccc(CO)o1; experiment: purified protein; conditions: 200 µM NADH, 100 mM Tris pH 7, 1 mM DTT, 25°C
# [3] = system: CC=O; experiment: purified protein; conditions: 200 µM NADH, 100 mM Tris pH 7, 1 mM DTT, 25°C
# [4] = molecular target: LlAdhA (Lactococcus lactis, UniProt Q9CEN0, Y50F/N110S/I212T/L264V); experiment: NADH consumption at […] nm; conditions: read-out: LlAdhA^29C8 / KM; 200 µM NADH; 100 mM Tris pH 7, 1 mM DTT; 25°C
# [5] = system: O=CC=Cc1ccccc1; experiment: purified protein; format: biochemical, Lactococcus lactis; conditions: 200 µM NADH, 100 mM Tris pH 7, 1 mM DTT, 25°C
# [6] = system: O=Cc1ccco1; experiment: purified protein; format: biochemical, Lactococcus lactis; conditions: 200 µM NADH, 100 mM Tris pH 7, 1 mM DTT, 25°C
molecule,measurement,setting,value
LlAdhA (Lactococcus lactis subsp. lactis Il1403; I212T/L264V/N110S/Y50F),Km,[1],680 ± 70 µM
same,kcat,[1],300 ± 4 s⁻¹
same,kcat/Km,[1],440000 ± 50000 M⁻¹ s⁻¹
same,Km,[2],570 µM
same,kcat,[2],29 s⁻¹
same,kcat/Km,[2],51000 M⁻¹ s⁻¹
same,Km,[3],920 µM
same,kcat,[3],58 s⁻¹
same,kcat/Km,[3],63000 M⁻¹ s⁻¹
LlAdhA (Lactococcus lactis subsp. lactis Il1403; I212T/L264V/Y50F),Km,[1],1700 ± 10 µM
same,kcat,[1],140 ± 1 s⁻¹
same,kcat/Km,[1],82000 ± 1000 M⁻¹ s⁻¹
same,Km,[2],670 µM
same,kcat,[2],23 s⁻¹
same,kcat/Km,[2],34000 M⁻¹ s⁻¹
same,Km,[3],500 µM
same,kcat,[3],31 s⁻¹
same,kcat/Km,[3],57000 M⁻¹ s⁻¹
O=Cc1ccco1 [2-furaldehyde],Km,[4],200 µM
LlAdhA (Lactococcus lactis subsp. lactis Il1403),Km,[1],12000 ± 1000 µM
same,kcat,[1],30 ± 1 s⁻¹
same,kcat/Km,[1],2800 ± 200 M⁻¹ s⁻¹
same,Km,[2],22000 µM
same,kcat,[2],19 s⁻¹
same,kcat/Km,[2],880 M⁻¹ s⁻¹
same,Km,[3],400 µM
same,kcat,[3],35 s⁻¹
same,kcat/Km,[3],94000 M⁻¹ s⁻¹
same,Km,[5],700 µM
same,kcat,[5],27 s⁻¹
same,kcat/Km,[5],39000 M⁻¹ s⁻¹
same,Km,[6],390 µM
same,kcat,[6],22 s⁻¹
same,kcat/Km,[6],57000 M⁻¹ s⁻¹
LlAdhA (Lactococcus lactis subsp. lactis Il1403; L264V/Y50F),Km,[1],1600 ± 200 µM
same,kcat,[1],50 ± 1 s⁻¹
same,kcat/Km,[1],32000 ± 4000 M⁻¹ s⁻¹
